Consider one molecule from PMC4951027.

In this assay the target is ecto-domain of integrin α5β1-Fc fusion protein. Put plainly: SPR. (In general: In SPR one partner is held on a chip, and binding of the other changes the refractive index at the surface.)

B1: Fn + FnBPA-10 (FnBPA-10-bound Fn) (complex)
chain 1: not shown
chain 2: not shown
chain 3: KYEHGGNIIDIDFDSVPHIHGFNKHTEIIEEDTNKDKP
Consider B1, for which the dissociation constant (Kd) (as a rule, a measure of binding affinity in units of concentration) came out at 260 nM; the ka1 (first step, bivalent analyte model) is 61000 M⁻¹ s⁻¹; the ka2 (second step, bivalent analyte model) was 1.3e-05 RU^-1s^-1; the kd1 (first step, bivalent analyte model) was found to be 0.015 s⁻¹. The molecule further yielded a kd2 (second step, bivalent analyte model) of 0.001 s⁻¹.
